Test results: publication PMC7367873, “Dissecting the sequence determinants for dephosphorylation by the catalytic subunits of phosphatases PP1 and PP2A” (Nature Communications, 2020)

How the values were obtained:
[1] = tested on: GFP-14-3-3β; assay: GFP-14-3-3β co-IP with LC-MS/MS, untreated GFP-14-3-3β versus GFP control (14-3-3 interactome); format: binding, human; conditions: GFP-14-3-3β co-IP LC-MS/MS; untreated vs GFP; student's t-test; label-free quantification, 3 replicates each
[2] = tested on: GFP-14-3-3β and its binding proteins; assay: GFP-14-3-3β co-IP with LC-MS/MS label-free quantification, untreated versus PP1c-treated; set-up: species or system human; conditions: GFP-14-3-3β co-IP LC-MS/MS; PP1 vs untreated; student's t-test; label-free quantification, 3 replicates each

Molecule | Difference (log2), untreated vs GFP [1] [log2] | Difference (log2), PP1 vs untreated [2] [log2]
SFPQ (protein, UniProt P23246 1-707, looked up) Splicing factor, proline- and …: MSRDRFRSRGGGGGGFHRRGGGGGRGGLHDFRSPPPGMGLNQNRGPMGPGPGQSGPKPPIPPPPPHQQQQQPPPQQPPPQQPPPHQPPPHPQPHQQQQPPPPPQDSSKPVVAQGPGPAPGVGSAPPASSSAPPATPPTSGAPPGSGPGPTPTPPPAVTSAPPGAPPPTPPSSGVPTTPPQAGGPPPPPAAVPGPGPGPKQGPGPGGPKGGKMPGGPKPGGGPGLSTPGGHPKPPHRGGGEPRGGRQHHPPYHQQHHQGPPPGGPGGRSEEKISDSEGFKANLSLLRRPGEKTYTQRCRLFVGNLPADITEDEFKRLFAKYGEPGEVFINKGKGFGFIKLESRALAEIAKAELDDTPMRGRQLRVRFATHAAALSVRNLSPYVSNELLEEAFSQFGPIERAVVIVDDRGRSTGKGIVEFASKPAARKAFERCSEGVFLLTTTPRPVIVEPLEQLDDEDGLPEKLAQKNPMYQKERETPPRFAQHGTFEYEYSQRWKSLDEMEKQQREQVEKNMKDAKDKLESEMEDAYHEHQANLLRQDLMRRQEELRRMEELHNQEMQKRKEMQLRQEEERRRREEEMMIRQREMEEQMRRQREESYSRMGYMDPRERDMRMGGGGAMNMGDPYGSGGQKFPPLGGGGGIGYEANPGVPPATMSGSMMGSDMRTERFGQGGAGPVGGQGPRGMGPGTPAGYGRGREEYEGPNKKPRF | 0.3721 | -0.3668
IPO7 (protein, UniProt O95373 1-1038, looked up) Importin-7: MDPNTIIEALRGTMDPALREAAERQLNEAHKSLNFVSTLLQITMSEQLDLPVRQAGVIYLKNMITQYWPDRETAPGDISPYTIPEEDRHCIRENIVEAIIHSPELIRVQLTTCIHHIIKHDYPSRWTAIVDKIGFYLQSDNSACWLGILLCLYQLVKNYEYKKPEERSPLVAAMQHFLPVLKDRFIQLLSDQSDQSVLIQKQIFKIFYALVQYTLPLELINQQNLTEWIEILKTVVNRDVPNETLQVEEDDRPELPWWKCKKWALHILARLFERYGSPGNVSKEYNEFAEVFLKAFAVGVQQVLLKVLYQYKEKQYMAPRVLQQTLNYINQGVSHALTWKNLKPHIQGIIQDVIFPLMCYTDADEELWQEDPYEYIRMKFDVFEDFISPTTAAQTLLFTACSKRKEVLQKTMGFCYQILTEPNADPRKKDGALHMIGSLAEILLKKKIYKDQMEYMLQNHVFPLFSSELGYMRARACWVLHYFCEVKFKSDQNLQTALELTRRCLIDDREMPVKVEAAIALQVLISNQEKAKEYITPFIRPVMQALLHIIRETENDDLTNVIQKMICEYSEEVTPIAVEMTQHLAMTFNQVIQTGPDEEGSDDKAVTAMGILNTIDTLLSVVEDHKEITQQLEGICLQVIGTVLQQHVLEFYEEIFSLAHSLTCQQVSPQMWQLLPLVFEVFQQDGFDYFTDMMPLLHNYVTVDTDTLLSDTKYLEMIYSMCKKVLTGVAGEDAECHAAKLLEVIILQCKGRGIDQCIPLFVEAALERLTREVKTSELRTMCLQVAIAALYYNPHLLLNTLENLRFPNNVEPVTNHFITQWLNDVDCFLGLHDRKMCVLGLCALIDMEQIPQVLNQVSGQILPAFILLFNGLKRAYACHAEHENDSDDDDEAEDDDETEELGSDEDDIDEDGQEYLEILAKQAGEDGDDEDWEEDDAEETALEGYSTIIDDEDNPVDEYQIFKAIFQTIQNRNPVWYQALTHGLNEEQRKQLQDIATLADQRRAAHESKMIEKHGGYKFSAPVVPSSFNFGGPAPGMN | 0.3162 | -0.3489
RRP15 (protein, UniProt Q9Y3B9 2-282, looked up) RRP15-like protein: AAAAPDSRVSEEENLKKTPKKKMKMVTGAVASVLEDEATDTSDSEGSCGSEKDHFYSDDDAIEADSEGDAEPCDKENENDGESSVGTNMGWADAMAKVLNKKTPESKPTILVKNKKLEKEKEKLKQERLEKIKQRDKRLEWEMMCRVKPDVVQDKETERNLQRIATRGVVQLFNAVQKHQKNVDEKVKEAGSSMRKRAKLISTVSKKDFISVLRGMDGSTNETASSRKKPKAKQTEVKSEEGPGWTILRDDFMMGASMKDWDKESDGPDDSRPESASDSDT | 0.6496 | -0.3533
LAMB3 (protein, UniProt Q13751 18-1172, looked up) Laminin subunit beta-3: QQACSRGACYPPVGDLLVGRTRFLRASSTCGLTKPETYCTQYGEWQMKCCKCDSRQPHNYYSHRVENVASSSGPMRWWQSQNDVNPVSLQLDLDRRFQLQEVMMEFQGPMPAGMLIERSSDFGKTWRVYQYLAADCTSTFPRVRQGRPQSWQDVRCQSLPQRPNARLNGGKVQLNLMDLVSGIPATQSQKIQEVGEITNLRVNFTRLAPVPQRGYHPPSAYYAVSQLRLQGSCFCHGHADRCAPKPGASAGPSTAVQVHDVCVCQHNTAGPNCERCAPFYNNRPWRPAEGQDAHECQRCDCNGHSETCHFDPAVFAASQGAYGGVCDNCRDHTEGKNCERCQLHYFRNRRPGASIQETCISCECDPDGAVPGAPCDPVTGQCVCKEHVQGERCDLCKPGFTGLTYANPQGCHRCDCNILGSRRDMPCDEESGRCLCLPNVVGPKCDQCAPYHWKLASGQGCEPCACDPHNSLSPQCNQFTGQCPCREGFGGLMCSAAAIRQCPDRTYGDVATGCRACDCDFRGTEGPGCDKASGRCLCRPGLTGPRCDQCQRGYCNRYPVCVACHPCFQTYDADLREQALRFGRLRNATASLWSGPGLEDRGLASRILDAKSKIEQIRAVLSSPAVTEQEVAQVASAILSLRRTLQGLQLDLPLEEETLSLPRDLESLDRSFNGLLTMYQRKREQFEKISSADPSGAFRMLSTAYEQSAQAAQQVSDSSRLLDQLRDSRREAERLVRQAGGGGGTGSPKLVALRLEMSSLPDLTPTFNKLCGNSRQMACTPISCPGELCPQDNGTACGSRCRGVLPRAGGAFLMAGQVAEQLRGFNAQLQRTRQMIRAAEESASQIQSSAQRLETQVSASRSQMEEDVRRTRLLIQQVRDFLTDPDTDAATIQEVSEAVLALWLPTDSATVLQKMNEIQAIAARLPNVDLVLSQTKQDIARARRLQAEAEEARSRAHAVEGQVEDVVGNLRQGTVALQEAQDTMQGTSRSLRLIQDRVAEVQQVLRPAEKLVTSMTKQLGDFWTRMEELRHQARQQGAEAVQAQQLAEGASEQALSAQEGFERIKQKYAELKDRLGQSSMLGEQGARIQSVKTEAEELFGETMEMMDRMKDMELELLRGSQAIMLRSADLTGLEKRVEQIRDHINGRVLYYATCK | 0.9719 | -0.3598
PHGDH (protein, UniProt O43175 2-533, looked up) D-3-phosphoglycerate …: AFANLRKVLISDSLDPCCRKILQDGGLQVVEKQNLSKEELIAELQDCEGLIVRSATKVTADVINAAEKLQVVGRAGTGVDNVDLEAATRKGILVMNTPNGNSLSAAELTCGMIMCLARQIPQATASMKDGKWERKKFMGTELNGKTLGILGLGRIGREVATRMQSFGMKTIGYDPIISPEVSASFGVQQLPLEEIWPLCDFITVHTPLLPSTTGLLNDNTFAQCKKGVRVVNCARGGIVDEGALLRALQSGQCAGAALDVFTEEPPRDRALVDHENVISCPHLGASTKEAQSRCGEEIAVQFVDMVKGKSLTGVVNAQALTSAFSPHTKPWIGLAEALGTLMRAWAGSPKGTIQVITQGTSLKNAGNCLSPAVIVGLLKEASKQADVNLVNAKLLVKEAGLNVTTSHSPAAPGEQGFGECLLAVALAGAPYQAVGLVQGTTPVLQGLNGAVFRPEVPLRRDLPLLLFRTQTSDPAMLPTMIGLLAEAGVRLLSYQTSLVSDGETWHVMGISSLLPSLEAWKQHVTEAFQFHF | -0.2834 | -0.3751
IARS (protein, UniProt P41252 1-1262, looked up) Isoleucine--tRNA ligase, …: MLQQVPENINFPAEEEKILEFWTEFNCFQECLKQSKHKPKFTFYDGPPFATGLPHYGHILAGTIKDIVTRYAHQSGFHVDRRFGWDCHGLPVEYEIDKTLGIRGPEDVAKMGITEYNNQCRAIVMRYSAEWKSTVSRLGRWIDFDNDYKTLYPQFMESVWWVFKQLYDKGLVYRGVKVMPFSTACNTPLSNFESHQNYKDVQDPSVFVTFPLEEDETVSLVAWTTTPWTLPSNLAVCVNPEMQYVKIKDVARGRLLILMEARLSALYKLESDYEILERFPGAYLKGKKYRPLFDYFLKCKENGAFTVLVDNYVKEEEGTGVVHQAPYFGAEDYRVCMDFNIIRKDSLPVCPVDASGCFTTEVTDFAGQYVKDADKSIIRTLKEQGRLLVATTFTHSYPFCWRSDTPLIYKAVPSWFVRVENMVDQLLRNNDLCYWVPELVREKRFGNWLKDARDWTISRNRYWGTPIPLWVSDDFEEVVCIGSVAELEELSGAKISDLHRESVDHLTIPSRCGKGSLHRISEVFDCWFESGSMPYAQVHYPFENKREFEDAFPADFIAEGIDQTRGWFYTLLVLATALFGQPPFKNVIVNGLVLASDGQKMSKRKKNYPDPVSIIQKYGADALRLYLINSPVVRAENLRFKEEGVRDVLKDVLLPWYNAYRFLIQNVLRLQKEEEIEFLYNENTVRESPNITDRWILSFMQSLIGFFETEMAAYRLYTVVPRLVKFVDILTNWYVRMNRRRLKGENGMEDCVMALETLFSVLLSLCRLMAPYTPFLTELMYQNLKVLIDPVSVQDKDTLSIHYLMLPRVREELIDKKTESAVSQMQSVIELGRVIRDRKTIPIKYPLKEIVVIHQDPEALKDIKSLEKYIIEELNVRKVTLSTDKNKYGIRLRAEPDHMVLGKRLKGAFKAVMTSIKQLSSEELEQFQKTGTIVVEGHELHDEDIRLMYTFDQATGGTAQFEAHSDAQALVLLDVTPDQSMVDEGMAREVINRIQKLRKKCNLVPTDEITVYYKAKSEGTYLNSVIESHTEFIFTTIKAPLKPYPVSPSDKVLIQEKTQLKGSELEITLTRGSSLPGPACAYVNLNICANGSEQGGVLLLENPKGDNRLDLLKLKSVVTSIFGVKNTELAVFHDETEIQNQTDLLSLSGKTLCVTAGSAPSLINSSSTLLCQYINLQLLNAKPQECLMGTVGTLLLENPLGQNGLTHQGLLYEAAKVFGLRSRKLKLFLNETQTQEITEDIPVKTLNMKTVYVSVLPTTADF | -0.1582 | -0.336
